Target: C57BL/6 and BALB/c IL-4Rs on transfected TF-1 cells (association rates told for both together)
Test: radioligand binding

- kon: 3.33e+06 to 4.33e+06 M⁻¹ s⁻¹
Substance: iodinated recombinant murine IL-4 (125I-IL-4) (from UniProt P07750 21-140) (ligand)
